# Reference: patent US10941182 (Amgen, dated 2021)
# Starred links: 1 amine or outer side, 2 acyl side, 3 side chain; linkers in the order of their positions; H or OH if unused. Non-standard residues stand in square brackets, D forms with d. *: point of attachment. dBip = N[C@H](Cc1ccc(-c2ccccc2)cc1)C(=O)O; Oic = O=C(O)[C@@H]1C[C@@H]2CCCC[C@@H]2N1; Phe(4-Cl) = N[C@@H](Cc1ccc(Cl)cc1)C(=O)O; Phe(4-I) = N[C@@H](Cc1ccc(I)cc1)C(=O)O; γGlu = O=C(O)[C@H](CCC(=O)[*:2])N[*:1]; Tridecanoyl = CCCCCCCCCCCCC(=O)*; hArg = N=C(N)NCCCC[C@H](N)C(=O)O; Cha = N[C@@H](CC1CCCCC1)C(=O)O; NMeL = CN[C@@H](CC(C)C)C(=O)O; Nle = CCCC[C@H](N)C(=O)O; AEEA = NCCOCCOCC(=O)O
# T1: human APJ receptor (human, UniProt P35414 1-380)
# T1 sequence (looked up): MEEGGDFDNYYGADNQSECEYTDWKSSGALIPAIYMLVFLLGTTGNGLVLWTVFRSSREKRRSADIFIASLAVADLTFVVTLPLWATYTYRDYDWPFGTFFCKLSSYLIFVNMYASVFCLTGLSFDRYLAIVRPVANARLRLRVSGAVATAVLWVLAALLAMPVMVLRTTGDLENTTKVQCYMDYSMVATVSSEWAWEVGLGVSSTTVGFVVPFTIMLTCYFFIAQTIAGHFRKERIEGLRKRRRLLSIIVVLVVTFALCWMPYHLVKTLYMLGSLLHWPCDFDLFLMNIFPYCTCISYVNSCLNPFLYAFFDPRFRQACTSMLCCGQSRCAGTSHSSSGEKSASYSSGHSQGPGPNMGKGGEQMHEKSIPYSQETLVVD
# T2: rat APJ receptor (rat, UniProt Q9JHG3 1-377)
# T2 sequence (looked up): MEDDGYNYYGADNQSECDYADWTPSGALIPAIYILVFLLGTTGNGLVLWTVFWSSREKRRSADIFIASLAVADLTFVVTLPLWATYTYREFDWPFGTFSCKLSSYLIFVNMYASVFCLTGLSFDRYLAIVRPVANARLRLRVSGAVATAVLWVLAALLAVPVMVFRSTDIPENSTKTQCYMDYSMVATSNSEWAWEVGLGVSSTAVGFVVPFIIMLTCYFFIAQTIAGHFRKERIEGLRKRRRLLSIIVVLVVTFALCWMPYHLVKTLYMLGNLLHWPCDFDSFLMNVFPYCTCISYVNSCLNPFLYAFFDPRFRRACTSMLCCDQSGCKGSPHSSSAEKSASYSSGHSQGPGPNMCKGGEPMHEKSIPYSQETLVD
# Key:
# human APJ receptor = molecular target: T1, human APJ receptor; assay: cell-based or functional assay
# rat APJ receptor = molecular target: T2, rat APJ receptor; assay: cell-based or functional assay
EC50 Human APJ Receptor (human APJ receptor) [nM],EC50 Rat APJ Receptor (rat APJ receptor) [nM],Binder
2.72,27.6,Tridecanoyl-[γGlu][AEEA][AEEA][dR]Q[hArg]P[dR][NMeL]SHKG[Oic][Nle]P[dBip]-OH (SMILES CCCCCCCCCCCCC(=O)N[C@@H](CCC(=O)NCCOCCOCC(=O)NCCOCCOCC(=O)N[C@H](CCCNC(=N)N)C(=O)N[C@@H](CCC(N)=O)C(=O)N[C@@H](CCCCNC(=N)N)C(=O)N1CCC[C@H]1C(=O)N[C@H](CCCNC(=N)N)C(=O)N(C)[C@@H](CC(C)C)C(=O)N[C@@H](CO)C(=O)N[C@@H](Cc1c[nH]cn1)C(=O)N[C@@H](CCCCN)C(=O)NCC(=O)N1[C@H](C(=O)N[C@@H](CCCC)C(=O)N2CCC[C@H]2C(=O)N[C@H](Cc2ccc(-c3ccccc3)cc2)C(=O)O)C[C@@H]2CCCC[C@@H]21)C(=O)O) [apelin polypeptide SEQ ID NO: 220]
10.8,22.5,Tridecanoyl-[γGlu][AEEA][AEEA]RQRP[dR][Cha]SHKG[Oic][Phe(4-I)]P[dBip]-OH (SMILES CCCCCCCCCCCCC(=O)N[C@@H](CCC(=O)NCCOCCOCC(=O)NCCOCCOCC(=O)N[C@@H](CCCNC(=N)N)C(=O)N[C@@H](CCC(N)=O)C(=O)N[C@@H](CCCNC(=N)N)C(=O)N1CCC[C@H]1C(=O)N[C@H](CCCNC(=N)N)C(=O)N[C@@H](CC1CCCCC1)C(=O)N[C@@H](CO)C(=O)N[C@@H](Cc1c[nH]cn1)C(=O)N[C@@H](CCCCN)C(=O)NCC(=O)N1[C@H](C(=O)N[C@@H](Cc2ccc(I)cc2)C(=O)N2CCC[C@H]2C(=O)N[C@H](Cc2ccc(-c3ccccc3)cc2)C(=O)O)C[C@@H]2CCCC[C@@H]21)C(=O)O) [apelin polypeptide SEQ ID NO: 216]
2.92,5.81,Tridecanoyl-[γGlu][AEEA][AEEA]RQRP[hArg][Cha]SHKG[Oic][Phe(4-I)]P[dBip]-OH (SMILES CCCCCCCCCCCCC(=O)N[C@@H](CCC(=O)NCCOCCOCC(=O)NCCOCCOCC(=O)N[C@@H](CCCNC(=N)N)C(=O)N[C@@H](CCC(N)=O)C(=O)N[C@@H](CCCNC(=N)N)C(=O)N1CCC[C@H]1C(=O)N[C@@H](CCCCNC(=N)N)C(=O)N[C@@H](CC1CCCCC1)C(=O)N[C@@H](CO)C(=O)N[C@@H](Cc1c[nH]cn1)C(=O)N[C@@H](CCCCN)C(=O)NCC(=O)N1[C@H](C(=O)N[C@@H](Cc2ccc(I)cc2)C(=O)N2CCC[C@H]2C(=O)N[C@H](Cc2ccc(-c3ccccc3)cc2)C(=O)O)C[C@@H]2CCCC[C@@H]21)C(=O)O) [apelin polypeptide SEQ ID NO: 214]
1.23,6.87,Tridecanoyl-[γGlu][AEEA][AEEA]QRP[hArg][NMeL]SHKG[Oic][Phe(4-I)]P[dBip]-OH (SMILES CCCCCCCCCCCCC(=O)N[C@@H](CCC(=O)NCCOCCOCC(=O)NCCOCCOCC(=O)N[C@@H](CCC(N)=O)C(=O)N[C@@H](CCCNC(=N)N)C(=O)N1CCC[C@H]1C(=O)N[C@@H](CCCCNC(=N)N)C(=O)N(C)[C@@H](CC(C)C)C(=O)N[C@@H](CO)C(=O)N[C@@H](Cc1c[nH]cn1)C(=O)N[C@@H](CCCCN)C(=O)NCC(=O)N1[C@H](C(=O)N[C@@H](Cc2ccc(I)cc2)C(=O)N2CCC[C@H]2C(=O)N[C@H](Cc2ccc(-c3ccccc3)cc2)C(=O)O)C[C@@H]2CCCC[C@@H]21)C(=O)O) [apelin polypeptide SEQ ID NO: 222]
4.67,8.83,Tridecanoyl-[γGlu][AEEA][AEEA][dR]QRP[hArg][Cha]SHKG[Oic][Phe(4-I)]P[dBip]-OH (SMILES CCCCCCCCCCCCC(=O)N[C@@H](CCC(=O)NCCOCCOCC(=O)NCCOCCOCC(=O)N[C@H](CCCNC(=N)N)C(=O)N[C@@H](CCC(N)=O)C(=O)N[C@@H](CCCNC(=N)N)C(=O)N1CCC[C@H]1C(=O)N[C@@H](CCCCNC(=N)N)C(=O)N[C@@H](CC1CCCCC1)C(=O)N[C@@H](CO)C(=O)N[C@@H](Cc1c[nH]cn1)C(=O)N[C@@H](CCCCN)C(=O)NCC(=O)N1[C@H](C(=O)N[C@@H](Cc2ccc(I)cc2)C(=O)N2CCC[C@H]2C(=O)N[C@H](Cc2ccc(-c3ccccc3)cc2)C(=O)O)C[C@@H]2CCCC[C@@H]21)C(=O)O) [apelin polypeptide SEQ ID NO: 217]
10.1,45,Tridecanoyl-[γGlu][AEEA][AEEA][dR]Q[hArg]P[dR][NMeL]SHKG[Oic][Phe(4-I)]P[Phe(4-Cl)]-OH (SMILES CCCCCCCCCCCCC(=O)N[C@@H](CCC(=O)NCCOCCOCC(=O)NCCOCCOCC(=O)N[C@H](CCCNC(=N)N)C(=O)N[C@@H](CCC(N)=O)C(=O)N[C@@H](CCCCNC(=N)N)C(=O)N1CCC[C@H]1C(=O)N[C@H](CCCNC(=N)N)C(=O)N(C)[C@@H](CC(C)C)C(=O)N[C@@H](CO)C(=O)N[C@@H](Cc1c[nH]cn1)C(=O)N[C@@H](CCCCN)C(=O)NCC(=O)N1[C@H](C(=O)N[C@@H](Cc2ccc(I)cc2)C(=O)N2CCC[C@H]2C(=O)N[C@@H](Cc2ccc(Cl)cc2)C(=O)O)C[C@@H]2CCCC[C@@H]21)C(=O)O) [apelin polypeptide SEQ ID NO: 219]
0.171,1.59,Ac-RQRP[hArg][Cha]SHKG[Oic][Nle]P[Phe(4-Cl)]-OH (SMILES CCCC[C@H](NC(=O)[C@@H]1C[C@@H]2CCCC[C@@H]2N1C(=O)CNC(=O)[C@H](CCCCN)NC(=O)[C@H](Cc1c[nH]cn1)NC(=O)[C@H](CO)NC(=O)[C@H](CC1CCCCC1)NC(=O)[C@H](CCCCNC(=N)N)NC(=O)[C@@H]1CCCN1C(=O)[C@H](CCCNC(=N)N)NC(=O)[C@H](CCC(N)=O)NC(=O)[C@H](CCCNC(=N)N)NC(C)=O)C(=O)N1CCC[C@H]1C(=O)N[C@@H](Cc1ccc(Cl)cc1)C(=O)O) [apelin polypeptide SEQ ID NO: 17]
0.841,14.9,Tridecanoyl-[γGlu][AEEA][AEEA][dR]Q[hArg]P[dR][NMeL]SHKG[Oic][Nle]P[Phe(4-Cl)]-OH (SMILES CCCCCCCCCCCCC(=O)N[C@@H](CCC(=O)NCCOCCOCC(=O)NCCOCCOCC(=O)N[C@H](CCCNC(=N)N)C(=O)N[C@@H](CCC(N)=O)C(=O)N[C@@H](CCCCNC(=N)N)C(=O)N1CCC[C@H]1C(=O)N[C@H](CCCNC(=N)N)C(=O)N(C)[C@@H](CC(C)C)C(=O)N[C@@H](CO)C(=O)N[C@@H](Cc1c[nH]cn1)C(=O)N[C@@H](CCCCN)C(=O)NCC(=O)N1[C@H](C(=O)N[C@@H](CCCC)C(=O)N2CCC[C@H]2C(=O)N[C@@H](Cc2ccc(Cl)cc2)C(=O)O)C[C@@H]2CCCC[C@@H]21)C(=O)O) [apelin polypeptide SEQ ID NO: 218]
0.647,1.17,Tridecanoyl-[γGlu][AEEA][AEEA][dR]QRP[hArg][NMeL]SHKG[Oic][Phe(4-I)]P[dBip]-OH (SMILES CCCCCCCCCCCCC(=O)N[C@@H](CCC(=O)NCCOCCOCC(=O)NCCOCCOCC(=O)N[C@H](CCCNC(=N)N)C(=O)N[C@@H](CCC(N)=O)C(=O)N[C@@H](CCCNC(=N)N)C(=O)N1CCC[C@H]1C(=O)N[C@@H](CCCCNC(=N)N)C(=O)N(C)[C@@H](CC(C)C)C(=O)N[C@@H](CO)C(=O)N[C@@H](Cc1c[nH]cn1)C(=O)N[C@@H](CCCCN)C(=O)NCC(=O)N1[C@H](C(=O)N[C@@H](Cc2ccc(I)cc2)C(=O)N2CCC[C@H]2C(=O)N[C@H](Cc2ccc(-c3ccccc3)cc2)C(=O)O)C[C@@H]2CCCC[C@@H]21)C(=O)O) [apelin polypeptide SEQ ID NO: 213]
0.196,1.93,Tridecanoyl-[γGlu][AEEA][AEEA][dR]Q[hArg]P[dR][Cha]SHKG[Oic][Nle]P[Phe(4-Cl)]-OH (SMILES CCCCCCCCCCCCC(=O)N[C@@H](CCC(=O)NCCOCCOCC(=O)NCCOCCOCC(=O)N[C@H](CCCNC(=N)N)C(=O)N[C@@H](CCC(N)=O)C(=O)N[C@@H](CCCCNC(=N)N)C(=O)N1CCC[C@H]1C(=O)N[C@H](CCCNC(=N)N)C(=O)N[C@@H](CC1CCCCC1)C(=O)N[C@@H](CO)C(=O)N[C@@H](Cc1c[nH]cn1)C(=O)N[C@@H](CCCCN)C(=O)NCC(=O)N1[C@H](C(=O)N[C@@H](CCCC)C(=O)N2CCC[C@H]2C(=O)N[C@@H](Cc2ccc(Cl)cc2)C(=O)O)C[C@@H]2CCCC[C@@H]21)C(=O)O) [apelin polypeptide SEQ ID NO: 221]
8.42,21.4,Tridecanoyl-[γGlu][AEEA][AEEA][dR]QRP[dR][Cha]SHKG[Oic][Phe(4-I)]P[dBip]-OH (SMILES CCCCCCCCCCCCC(=O)N[C@@H](CCC(=O)NCCOCCOCC(=O)NCCOCCOCC(=O)N[C@H](CCCNC(=N)N)C(=O)N[C@@H](CCC(N)=O)C(=O)N[C@@H](CCCNC(=N)N)C(=O)N1CCC[C@H]1C(=O)N[C@H](CCCNC(=N)N)C(=O)N[C@@H](CC1CCCCC1)C(=O)N[C@@H](CO)C(=O)N[C@@H](Cc1c[nH]cn1)C(=O)N[C@@H](CCCCN)C(=O)NCC(=O)N1[C@H](C(=O)N[C@@H](Cc2ccc(I)cc2)C(=O)N2CCC[C@H]2C(=O)N[C@H](Cc2ccc(-c3ccccc3)cc2)C(=O)O)C[C@@H]2CCCC[C@@H]21)C(=O)O) [apelin polypeptide SEQ ID NO: 215]
